Values of other authors, collected in patent US11963996B2, “Method of treating knee pain” (ORTHOTROPHIX, Inc., priority 2018, dated 2024).

Key:
[1] = tested on: human osteoblastic mesenchymal stem cells; details: cited from earlier work
OA patients = details: human, in vivo; cited from earlier work
subjects with knee OA = details: vs placebo, cited from earlier work

Molecule: rat orthologue: TPX-100 orthologue PDLLVRGDNDVPPFSGDGQHFMH (Rat/Mouse)
- Tritium-thymidine incorporation [1]: promote tritium-thymidine incorporation

Molecule: N#Cc1c(N(CC(=O)[O-])CC(=O)[O-])sc(C(=O)[O-])c1CC(=O)[O-].[Sr+2].[Sr+2] [strontium ranelate]
- Risk of myocardial infarction (OA patients): increase the risk of myocardial infarction

B1: FGF-18: Fibroblast Growth Factor-18, a.k.a. Sprifermin, candidate DMOAD, a putative chondrocyte growth factor (protein, UniProt O76093 28-207, looked up)
Fibroblast growth factor 18: EENVDFRIHVENQTRARDDVSRKQLRLYQLYSRTSGKHIQVLGRRISARGEDGDKYAQLLVETDTFGSQVRIKGKETEFYLCMNRKGKLVGKPDGTSKECVFIEKVLENNYTALMSAKYSGWYVGFTKKGRPRKGPKTRENQQDVHFMKRYPKGQPELQKPFKYTTVTKRSRRIRPTHPA
modifications: sprifermin
notes: Fibroblast Growth Factor-18, a.k.a; Sprifermin, candidate DMOAD, a putative chondrocyte growth factor
- Clinical benefit (WOMAC) (subjects with knee OA; 24 months): no difference in clinical benefit was detected in any treatment group when compared with placebo
- Clinical benefit (subjects with knee OA; 36 months): failed to demonstrate clinical benefit compared with the placebo-treated group
- Tibiofemoral cartilage thickness by MRI (subjects with knee OA; three once-weekly IA injections, repeated at months 6, 12, 18, 24 months): dose-dependent increases in tibiofemoral cartilage thickness compared with the placebo group
